Data set [1] deals with primary human foreskin fibroblasts. Nature of the data set: Cyr61-regulated gene expression (multi-gene blot, Northern). The data set is classed as cell-based. As for the experimental part:
Purified, soluble, recombinant Cyr61 protein was added to cultures of primary human foreskin fibroblasts for 24 hours. From these cells, mRNA was isolated for preparation of probes to hybridize to a multi-gene blot (Clontech Atlas Human Array 1.2 cat no. 7850-1) containing about 650 genes. The levels of expression of these genes in Cyr61-treated cells were compared to that of control cells. […] These findings have been confirmed by Northern blot analysis showing increases or decreases of the mRNAs in question in Cyr61-treated cells. A time course of expression changes has been established. In particular, by 6 hours after its addition, Cyr61 has induced expression of VEGF-A mRNA and the induction is still evident at 12 and 24 hours post-addition. Also at 12 and 24 hours post-addition, Cyr61 has induced expression of VEGF-A polypeptide. With respect to VEGF-C, induction of mRNA is clearly evident 12 hours after addition of Cyr61 and the induction persists at least through 24 hours post-addition. Cyr61 is expected to induce the expression of VEGF-C polypeptide with similar kinetics.

A further data set relates to NIH 3T3 cells. Nature of the data set: Fibroblast chemotaxis, modified Boyden chamber. The format is cell-based, mouse. From the text: Cyr61 also affects chondrocytes, e.g., […] involved in skeletal development. In particular, Cyr61 influences the development, and perhaps maintenance, of cartilage, in contrast to the variety of growth-related proteins that exclusively influence development and maintenance of the bony skeleton. The chemotactic response of NIH 3T3 cells to murine Cyr61 was examined using a modified Boyden chamber (Neuroprobe Inc., catalog no. AP48). Grotendorst, Meth. Enzymol. 147:144-152 (1987). Purified Cyr61 protein was serially diluted in DMEM containing bovine serum albumin (BSA; 0.2 mg/ml) and added to the lower well of the chamber. The lower well was then covered with a collagen-coated polycarbonate filter (8 μm pore diameter; Nucleopore Corp., Pleasanton, Calif.). Cells (6×10^4) were then loaded into the upper well. After 5 hours incubation (10% CO2, 37° C.), the filter was removed and the cells were fixed and stained using Wright-Giemsa stain (Harleco formulation; EM Diagnostic Systems, Gibbstown, N.J.). Cells from the upper surface of the filter were then removed by wiping with a tissue swab. The chemotactic response was determined by counting the total number of migrating cells detected in ten randomly selected high-power microscopic fields (400-fold magnification) on the lower surface of the filter. Duplicate trials were performed for each experiment and the experiment was repeated three times to ensure reproducibility of the data.

The next data set has as its system HUVE cells. Description: HUVE cell attachment to murine Cyr61-coated plates. The data set is classed as cell-based, human. On the procedure:
(§1) Another embodiment of the invention is directed to the use of Cyr61 to mediate cellular attachment to the extracellular matrix. Induction of cellular adhesion was investigated using murine Cyr61, fibronectin, and bovine serum albumin (BSA). Immunological 96-well plates (Falcon brand) were coated with 50 μl of 0.1% BSA in PBS at 4° C. in the presence of 0-30 μg/ml concentrations of murine Cyr61 or fibronectin. After two hours exposure to the coating solution, non-diluted immune or pre-immune antisera (30 μl/well), or affinity-purified anti-Cyr61 antibodies were added. For some wells, the coating mixture was adjusted to 10 mM DTT or 100 mM HCl. After 16 hours incubation, the coating solution was removed and the well surface was blocked with 1% BSA in phosphate-buffered saline (PBS) for 1 hour at room temperature. HUVE cells were plated in Ham's complete F12K medium [GIBCO-BRL, Inc.; Ham, Proc. Natl. Acacd. Sci. (USA) 53:786 (1965)] at 5×10^3-10^4 cells/well. Cycloheximide was added to 100 μg/ml immediately before plating and monensin was added to 1 μM 14 hours before plating. After a 2-hour incubation at 37° C., the wells were washed with PBS and attached cells were fixed and stained with methylene blue. The attachment efficiency was determined by quantitative dye extraction and measurement of the extract absorbance at 650 nm. Oliver et al., J. Cell. Sci. 92:513-518 (1989).

The test system of a further data set is Limb mesenchymal cells. Nature of the data set: Limb bud mesenchymal cell attachment. The format is cell-based, mouse. To be noted: within 1 hour of plating. On the procedure:
Cyr61, fibronectin (Gibco), or tenascin (Gibco) were diluted in 0.1% protease-free bovine serum albumin (BSA) in PBS with 0.5 mM PMSF, to a final concentrations of 10 or 50 μg/ml. A 10 μl drop/well was placed in a non-tissue culture treated 24-well plate (Corning), and incubated at room temperature for 2 hours. The wells were blocked with 1% BSA in PBS for 1 hour at room temperature, and rinsed with serum-free MEM (Modified Eagle's Medium). Limb mesenchymal cells, suspended at 5×10^5 cell/ml in serum-free MEM, were added at a volume of 400 μl/well, and incubated at 37° C., 5% CO2 for 1 or 3 hours. At each time point, the cell suspension was removed, the wells were rinsed with MEM and the remaining adherent cells were photographed.

Data set [2] can be described thus: Sensitivity of Cyr61 cell-attachment activity to DTT, heat, acid and protease. The format is physicochemical. As for the experimental part:
Because murine Cyr61 contains 38 cysteines in the 355 amino acid secreted portion, the contribution of disulfide bond formation to Cyr61 tertiary structure was investigated. […] However, Cyr61 was inactivated by heating at 75° C. for 5 minutes, by incubation in 100 mM HCl, or upon extensive digestion with chymotrypsin. […] In addition, Cyr61 is neither phosphorylated nor glycosylated.
as §1

B1: Cyr61: Cysteine-rich ECM signaling protein; murine sequence SEQ ID NO:2, recombinant from Baculovirus-infected Sf9 cells (protein, listed as Mus musculus)
chain: MSSSTFRTLAVAVTLLHLTRLALSTCPAACHCPLEAPKCAPGVGLVRDGCGCCKVCAKQLNEDCSKTQPCDHTKGLECNFGASSTALKGICRAQSEGRPCEYNSRIYQNGESFQPNCKHQCTCIDGAVGCIPLCPQELSLPNLGCPNPRLVKVSGQCCEEWVCDEDSIKDSLDDQDDLLGLDASEVELTRNNELIAIGKGSSLKRLPVFGTEPRVLFNPLHAHGQKCIVQTTSWSQCSKSCGTGISTRVTNDNPECRLVKETRICEVRPCGQPVYSSLKKGKKCSKTKKSPEPVRFTYAGCSSVKKYRPKYCGSCVDGRCCTPLQTRTVKMRFRCEDGEMFSKNVMMIQSCKCNYNCPHPNEASFRLYSLFNDIHKFRD
As to B1, in data set [1], the “time after addition at which VEGF-A mRNA is induced” value is not above 6 h and the “time after addition at which VEGF-C mRNA induction is clearly evident” value was found to be 12 h. For the same molecule, in data set [1] (soluble Cyr61, 24 hours), the “expression of angiogenic molecules” value is “induction of the angiogenic molecules VEGF1 and VEGF3”; the “expression of inflammation-related cytokines” value is “induction of the inflammation-related cytokines IL-1 and IL-6”; the “expression of matrix degrading enzymes” value was “upregulation of matrix degrading enzymes including MMP1, MMP3, and uPA”; the “expression of matrix protein genes” value is reported as “downregulation of matrix protein genes such as the type I collagen chain gene”. In addition, in the data set on NIH 3T3 cells, the “optimal concentration for the chemotactic activity” value lay within 1 to 5 µg/mL. Besides, the “migrating cells per high-power field” value in the data set with NIH 3T3 cells (0.5 μg/ml) is “about 5.2 cells”. In addition, the “average number of migrating cells detected per field” value (“average number … per field” below) in the data set on NIH 3T3 cells (1 μg/ml) worked out at 7.5 cells. Besides, the “average number … per field” value with NIH 3T3 cells (5 μg/ml) came out at 18.5 cells. The “average number … per field” value in the data set on NIH 3T3 cells (10 μg/ml) worked out at 18.7 cells. Also, the “HUVE cell attachment, A650” value with HUVE cells (coating 1 μg/ml) came to 0.1 A650. Besides, the “HUVE cell attachment, A650” value in the data set with HUVE cells (coating 30 μg/ml) is listed as 0.8 A650. Also, in the data set with Limb mesenchymal cells, the “attachment morphology of limb mesenchymal cells” value was “adhered as clusters of rounded cells”. Also, in data set [2] (10 mM dithiothreitol (DTT), 16 hours), the “ability to mediate cell attachment after treatment” value is listed as “did not affect the ability of Cyr61 to mediate cell attachment”. For the same molecule, the activity after heating result in data set [2] (75° C. for 5 minutes) is “inactivated”. For the same molecule, in data set [2] (extensive digestion with chymotrypsin), the activity after protease entry is on record as “inactivated”. Also, the activity after acid result in data set [2] (incubation in 100 mM HCl) was “inactivated”.
